In US20040208880A1:

Molecular target: GFP-tagged Pak1 (human) (UniProt Q13153)
Assay: cell-based or functional assay

GFP-tagged Pak1 (human), sequence (Q13153 whole entry A26V/E503D): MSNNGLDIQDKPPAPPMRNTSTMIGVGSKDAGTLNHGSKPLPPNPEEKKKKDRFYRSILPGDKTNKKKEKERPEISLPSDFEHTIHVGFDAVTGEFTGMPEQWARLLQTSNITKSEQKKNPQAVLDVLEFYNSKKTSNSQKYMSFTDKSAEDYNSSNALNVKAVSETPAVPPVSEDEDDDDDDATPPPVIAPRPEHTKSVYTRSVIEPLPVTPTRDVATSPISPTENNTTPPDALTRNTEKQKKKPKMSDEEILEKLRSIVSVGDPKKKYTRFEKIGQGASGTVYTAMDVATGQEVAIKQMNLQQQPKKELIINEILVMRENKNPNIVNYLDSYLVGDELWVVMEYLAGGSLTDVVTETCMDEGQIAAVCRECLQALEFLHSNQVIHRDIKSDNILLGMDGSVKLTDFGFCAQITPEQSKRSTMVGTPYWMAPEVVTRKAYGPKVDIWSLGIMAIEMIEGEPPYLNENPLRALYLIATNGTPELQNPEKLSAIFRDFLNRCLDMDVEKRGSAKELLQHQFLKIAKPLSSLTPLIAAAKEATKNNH

RFP-DLC1-1-66 (from UniProt P61273 1-66)
vesicle formation (macropinocytosis), confocal microscopy of cotransfected SKBR3 cells (% of the transfected cells): > 80
